This note sets out measurements from US20120276119A1 (IMMUNOGEN, published 2012).

In experiment [1] the target is T1, Human CD37 (human, UniProt P11049 1-278).
T1 sequence: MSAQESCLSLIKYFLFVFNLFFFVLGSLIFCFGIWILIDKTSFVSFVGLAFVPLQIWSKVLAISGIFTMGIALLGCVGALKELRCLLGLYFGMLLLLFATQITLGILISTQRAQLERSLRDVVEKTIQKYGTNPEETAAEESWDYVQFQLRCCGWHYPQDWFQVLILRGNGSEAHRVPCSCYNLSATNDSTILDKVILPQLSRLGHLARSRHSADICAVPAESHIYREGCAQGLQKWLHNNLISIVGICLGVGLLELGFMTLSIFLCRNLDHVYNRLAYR
The experiment in a line: cell-based or functional assay.

For experiment [2], the target named is T1, Human CD37. The experiment in a line: flow cytometry on human tumor cells expressing human CD37. On the technique in general: Flow cytometry measures light scatter and fluorescence of single cells or particles in a stream.
The target in the next experiment is T2, Murine CD37 (murine, UniProt Q61470 1-281).
T2 construct: Endogenous muCD37 on 300-19 murine pre-B cells and on wild type mouse spleen B cells; also called muCD37
T2 sequence: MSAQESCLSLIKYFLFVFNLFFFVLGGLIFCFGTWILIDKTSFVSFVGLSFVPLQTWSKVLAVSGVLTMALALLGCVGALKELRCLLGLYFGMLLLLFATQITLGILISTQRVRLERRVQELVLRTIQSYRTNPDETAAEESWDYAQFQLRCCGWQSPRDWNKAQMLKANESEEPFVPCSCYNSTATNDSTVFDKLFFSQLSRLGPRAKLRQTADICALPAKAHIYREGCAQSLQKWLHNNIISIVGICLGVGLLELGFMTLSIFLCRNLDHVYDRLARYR
The experiment in a line: flow cytometry titration on 300-19 murine pre-B cells expressing muCD37; anti-muIgG-PE detection; EC50 of the curve taken as the apparent Kd. As for the experimental part: Cells were then washed and counterstained with anti muIgG-PE conjugate (Jackson Immunoresearch, West Grove, Pa.) for 30 minutes at 4° C. The cells were finally washed, fixed in formalin and analyzed by flow cytometry using a FACSarray (BD Bioscience, San Jose, Calif.). The flow cytometry data were analyzed using FlowJo (Tree Star Inc., Ashland, Oreg.) and the geometric mean fluorescence intensity was plotted against the antibody concentration in a semi-log plot (FIG. 8). A dose-response curve was generated by non-linear regression and the EC50 value of the curve, which corresponds to the apparent dissociation constant (Kd) of the antibody, was calculated using GraphPad Prism (GraphPad Software Inc., La Jolla, Calif.).

B1: huCD37-50 (antibody, human IgG1, kappa, V domains shown)
VH: QVQLQESGPGLLKPSQSLSLTCTVSGYSITSGFAWHWIRQHPGNKLEWMGYILYSGSTVYSPSLKSRISITRDTSKNHFFLQLNSVTAADTATYYCARGYYGYGAWFAYWGQGTLVTVSA
VL: EIVLTQSPATMSASPGERVTMTCSATSSVTYMHWYQQKPGQSPKRWIYDTSNLPYGVPARFSGSGSGTSYSLTISSMEAEDAATYYCQQWSDNPPTFGQGTKLEIKR
Take B1: in the experiment with Human CD37 [1], the “in vitro depletion of B-cells, whole human blood, 10 µg/mL, one donor” value (from here on “in vitro depletion of B-cells”) is approximately 40%.

B2: huCD37-50-SMCC-DM1 (antibody, human IgG1, kappa, V domains shown)
VH: QVQLQESGPGLLKPSQSLSLTCTVSGYSITSGFAWHWIRQHPGNKLEWMGYILYSGSTVYSPSLKSRISITRDTSKNHFFLQLNSVTAADTATYYCARGYYGYGAWFAYWGQGTLVTVSA
VL: EIVLTQSPATMSASPGERVTMTCSATSSVTYMHWYQQKPGQSPKRWIYDTSNLPYGVPARFSGSGSGTSYSLTISSMEAEDAATYYCQQWSDNPPTFGQGTKLEIKR
modifications: DM1 maytansinoid linked via SMCC; sites, chain and drug load in the assay not stated
For the molecule B2, in the experiment with Human CD37 [1], the “in vitro depletion of B-cells” value was approximately 40%.

B3: anti-muCD37 monoclonal antibody clone 252-3 (antibody, mouse IgG2a, V domains shown)
VH: EVQVVESGGDLVKPGGSLKLSCAASGFTFSSYGMSWVRQTPDKRLEWVATISSGGSYTYSPDSVKGRFTISRDNAKKTLYLQMSSLKSEDTAMYYCARHSYYDTSVDYWGQGTSVTVSS
VL: DIQMTQTTSSLSASLGDRVTISCRASQDISNYLNWYQQKPDGTVKLLIYYTSKLHSGVPSRFSGSGSGTDYSLTISNLEQEDIATYFCQQGNALPWTFGGGTKLELKR
With B3, in the experiment with Human CD37 [2], the binding result was “no binding”. Also, in the experiment with Murine CD37, the Kd came out at 14 nM.

B4: huCD37-3 (antibody, V domains shown)
VH: QVQVQESGPGLVAPSQTLSITCTVSGFSLTTSGVSWVRQPPGKGLEWLGVIWGDGSTNYHPSLKSRLSIKKDHSKSQVFLKLNSLTAADTATYYCAKGGYSLAHWGQGTLVTVSS
VL: DIQMTQSPSSLSVSVGERVTITCRASENIRSNLAWYQQKPGKSPKLLVNVATNLADGVPSRFSGSGSGTDYSLKINSLQPEDFGTYYCQHYWGTTWTFGQGTKLEIKR
As for B4, the “in vitro depletion of B-cells” value with Human CD37 [1] is approximately 40%.

B5: huCD37-3-SMCC-DM1 (antibody, V domains shown)
VH: QVQVQESGPGLVAPSQTLSITCTVSGFSLTTSGVSWVRQPPGKGLEWLGVIWGDGSTNYHPSLKSRLSIKKDHSKSQVFLKLNSLTAADTATYYCAKGGYSLAHWGQGTLVTVSS
VL: DIQMTQSPSSLSVSVGERVTITCRASENIRSNLAWYQQKPGKSPKLLVNVATNLADGVPSRFSGSGSGTDYSLKINSLQPEDFGTYYCQHYWGTTWTFGQGTKLEIKR
modifications: DM1 maytansinoid linked via SMCC; sites, chain and drug load in the assay not stated
Regarding B5, in the experiment with Human CD37 [1], the “EC50 of in vitro B-cell depletion, purified human PBMCs, two donors” value fell in the range of 0.04 to 0.075 µg/mL and the “in vitro depletion of B-cells” value is approximately 40%.
